Reference: patent publication US11549134B2, “Modified amadoriase and method for producing the same, agent for improving surfactant resistance of amadoriase and composition for measuring HbA1c using the same” (Kikkoman Corporation, priority 2013, dated 2023)

B1: CFP-D: amadoriase derived from the genus Coniochaeta with E98A, F43Y, G184D, deletion of 3 carboxy-terminal amino acid residues; SEQ ID NO: 3 (protein, listed as Coniochaeta sp.)
chain: MTSNRADTRVIVVGGGGTIGSSTALHLVRSGYAPANITVLDTYEIPSAQSAGHDLNKIMGIRLRNKVDLQMSLEARQMWKEDELFQPFFHNTGRMDCAHTPEGIEDLKKQYQALHDAGAGLEKTHAWLDNEDEILSKMPLLQRDQIQGWKAIWSQDGGWLAAAKAINAIGQFLKERGVKFGFGDAGSFKQPLFDDEGTTCIGVETADGTKYYADKVVLAAGAWSPTLVDLEDQCCSKAWVYAHIQLTPEEAAEYKGVPVVYNGEFGFFFEPDEFGVIKVCDEFPGFSRFKEHQPYGAPSPKRISVPRSHAKHPTDTYPDASEVSIKKAIATFLPRFQDKELFNRALCWCTDTADAALLMCEHPKWKNFILATGDSGHSFKILPNVGKYVVELIEGRLPEEMAYQWRWRPGGDALKSRRAAPPKDLADMPGWKHD
modifications: 3 C-terminal residues deleted
B2: CcFX: ketoamine oxidase derived from Curvularia clavata, SEQ ID NO: 37 (protein, listed as Curvularia clavata)
chain: MAPSRANTSVIVVGGGGTIGSSTALHLVRSGYTPSNITVLDTYPIPSAQSAGNDLNKIMGIRLRNKVDLQLSLEARQMWREDDLFKEYFHNTGRLDCAHGEEGLADLRQAYQALLDANAGLEETTEWLDSEDEILKKMPLLDREQIKGWKAVYSQDGGWLAAAKAINAIGEYLRAQGVKFGFGGAGSFKQPLLAEGVCIGVETVDGTRYYADKVVLAAGAWSPVLVDLEDQCVSKAWVYAHIQLTPEEAAEYKNVPVVYNGDVGFFFEPDEHGVIKVCDEFPGFTRFKQHQPYGAKAPKRISVPRSAAKHPTDTYPDASEKSIRKAIATFLPKFTEKELFNRHLCWCTDTADAALLMCEHPEWKNFVLATGDSGHTFKLLPNIGKHVVELLEGTLAEDLAHAWRWRPGTGDALKSRRAAPAKDLADMPGWKHDDVVKSKL

Legend:
Type in all cases: biochemical
[1] = Surfactant resistance (residual activity), 0.04% TTAC; conditions: 20 mM potassium phosphate buffer (pH 7.0)
Description: (§1) An amadoriase crude enzyme solution or an amadoriase purified sample is diluted with a 30 mM MES/21 mM Tris buffer solution (pH6.5) so as to have a concentration of about 1.0 U/ml. To this, CTAC (for example, manufactured by Tokyo Kasei Kogyo Co., Ltd.) is added so as to obtain a final concentration 0.01% (w/v) or 0.04%. The resultant mixture is heated at 30° C. for 5 minutes. After heating, the mixture is diluted double with a 10 mM phosphate buffer (pH7.0) containing 0.15% BSA to prepare a sample. The enzyme activities of the sample before and after a surfactant treatment are measured by the method described in Section B above. […] In this manner, surfactant resistance is evaluated.
Tetradecyltrimethylammonium chloride (hereinafter indicated with “TTAC”) was used in place of the surfactant CTAC used in Example 2 to evaluate the stability of CFP-D. The surfactant resistance of various modified amadoriases was evaluated in accordance with a measurement method for surfactant resistance according to Example 1, although under surfactant treatment conditions in which the amadoriases were each diluted in a 20 mM potassium phosphate buffer solution (pH 7.0) and mixed with 0.04% TTAC. In this respect, it was confirmed that when the warmed sample was again measured for activity 30 minutes after 2-fold dilution in a BSA solution, there was no change in the activity value.

[2] = Surfactant resistance (residual activity) of CFP-D multiple variants, 0.04% CTAC; conditions: 30°C, 5 minutes, crude enzyme
Description: An amadoriase crude enzyme solution or an amadoriase purified sample is diluted with a 30 mM MES/21 mM Tris buffer solution (pH6.5) so as to have a concentration of about 1.0 U/ml. To this, CTAC (for example, manufactured by Tokyo Kasei Kogyo Co., Ltd.) is added so as to obtain a final concentration 0.01% (w/v) or 0.04%. The resultant mixture is heated at 30° C. for 5 minutes. After heating, the mixture is diluted double with a 10 mM phosphate buffer (pH7.0) containing 0.15% BSA to prepare a sample. The enzyme activities of the sample before and after a surfactant treatment are measured by the method described in Section B above. The ratio of activity of the sample after the surfactant treatment relative to the activity of the sample before the surfactant treatment (regarded as 100), i.e., the residual activity (%), is obtained. In this manner, surfactant resistance is evaluated. […]

[3] = Surfactant resistance (residual activity), 0.04% SDS; conditions: 30 mM MES/21 mM Tris buffer (pH 6.5)
Description: as §1
The stability of CFP-D was evaluated using sodium dodecyl sulfate (hereinafter indicated with “SDS”) in place of the surfactant CTAC used in Example 2. The surfactant resistance of the modified amadoriases was evaluated in accordance with a measurement method for surfactant resistance according to Example 1 although under surfactant treatment conditions in which the amadoriases were each diluted in a 30 mM MES/21 mM Tris buffer solution (pH 6.5) and mixed with 0.04% SDS. In this respect, it was confirmed that when the warmed sample was again measured for activity 30 minutes after 2-fold dilution in a BSA solution, there was no change in the activity value.

[4] = Surfactant resistance (residual activity) of CcFX variants, 0.01% CTAC; conditions: 30°C, 5 minutes, 20 mM potassium phosphate buffer (pH 7.0), crude enzyme, Table 1-2
Description: as §1
Using a recombinant plasmid containing CcFX gene (SEQ ID NO: 55) as a starting plasmid, various variants were produced as in the procedures described in (1) and (2) above in Escherichia coli strain JM109 (pKK223-3-CcFX) having the plasmid. […] Subsequently, the surfactant resistance of the modified amadoriases was evaluated according to the measurement method for surfactant resistance described in (4) although under surfactant treatment conditions in which the amadoriases were each diluted in a 20 mM potassium phosphate buffer solution (pH 7.0) and mixed with 0.01% CTAC. […]

| Molecule | Residual Activity(%) [1] [%] | Residual Activity(%) [2] [%] | Residual Activity(%) [3] [%] | Residual Activity(%) [4] [%] |
| --- | --- | --- | --- | --- |
| B1 | 29.2 | 12.7 | 11.3 |  |
| B2 |  |  |  | 27.4 |
